This note sets out measurements from publication PMC4538830.

The assay deals with T1, full-length recombinant His tagged CTNNBL1 (human), Q8WYA6.
T1 chain: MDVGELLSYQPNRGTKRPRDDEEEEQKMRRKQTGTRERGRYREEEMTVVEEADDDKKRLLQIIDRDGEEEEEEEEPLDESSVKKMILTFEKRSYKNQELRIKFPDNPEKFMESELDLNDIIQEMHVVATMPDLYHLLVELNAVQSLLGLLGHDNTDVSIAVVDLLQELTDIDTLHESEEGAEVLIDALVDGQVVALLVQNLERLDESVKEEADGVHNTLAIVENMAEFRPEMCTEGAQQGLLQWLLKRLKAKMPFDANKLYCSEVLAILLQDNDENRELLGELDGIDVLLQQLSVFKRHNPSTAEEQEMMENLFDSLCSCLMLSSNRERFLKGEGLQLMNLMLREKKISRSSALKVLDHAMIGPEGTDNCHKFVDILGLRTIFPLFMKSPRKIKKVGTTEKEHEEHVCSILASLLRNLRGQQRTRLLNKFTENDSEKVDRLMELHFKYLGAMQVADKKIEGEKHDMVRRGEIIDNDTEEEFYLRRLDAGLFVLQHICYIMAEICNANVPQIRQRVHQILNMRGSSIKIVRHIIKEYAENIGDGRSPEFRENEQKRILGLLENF
Put plainly: SEC-MALS; CTNNBL1 (full length or [77–563]) alone; also in high salt buffer (0.5 M NaCl) or with CWC15[80–229] added; Supplementary Figure S7. The note with it: remark: other sources report otherwise. Background: SEC sorts molecules by how far they enter the pores of the column.

B1: full-length recombinant His tagged CTNNBL1, Q8WYA6 1-563 (natural protein)
chain: MDVGELLSYQPNRGTKRPRDDEEEEQKMRRKQTGTRERGRYREEEMTVVEEADDDKKRLLQIIDRDGEEEEEEEEPLDESSVKKMILTFEKRSYKNQELRIKFPDNPEKFMESELDLNDIIQEMHVVATMPDLYHLLVELNAVQSLLGLLGHDNTDVSIAVVDLLQELTDIDTLHESEEGAEVLIDALVDGQVVALLVQNLERLDESVKEEADGVHNTLAIVENMAEFRPEMCTEGAQQGLLQWLLKRLKAKMPFDANKLYCSEVLAILLQDNDENRELLGELDGIDVLLQQLSVFKRHNPSTAEEQEMMENLFDSLCSCLMLSSNRERFLKGEGLQLMNLMLREKKISRSSALKVLDHAMIGPEGTDNCHKFVDILGLRTIFPLFMKSPRKIKKVGTTEKEHEEHVCSILASLLRNLRGQQRTRLLNKFTENDSEKVDRLMELHFKYLGAMQVADKKIEGEKHDMVRRGEIIDNDTEEEFYLRRLDAGLFVLQHICYIMAEICNANVPQIRQRVHQILNMRGSSIKIVRHIIKEYAENIGDGRSPEFRENEQKRILGLLENF
For orientation: stoichiometry N means a count of units in the complex or per binding partner. Regarding B1, the stoichiometry N was found to be 3.
